These results are taken from patent publication US20220298218A1 (ANTAG THERAPEUTICS, published 2022).

Experiment [1] concerns the target T1, human GIP receptor (human, UniProt P48546 22-466).
T1 sequence (looked up): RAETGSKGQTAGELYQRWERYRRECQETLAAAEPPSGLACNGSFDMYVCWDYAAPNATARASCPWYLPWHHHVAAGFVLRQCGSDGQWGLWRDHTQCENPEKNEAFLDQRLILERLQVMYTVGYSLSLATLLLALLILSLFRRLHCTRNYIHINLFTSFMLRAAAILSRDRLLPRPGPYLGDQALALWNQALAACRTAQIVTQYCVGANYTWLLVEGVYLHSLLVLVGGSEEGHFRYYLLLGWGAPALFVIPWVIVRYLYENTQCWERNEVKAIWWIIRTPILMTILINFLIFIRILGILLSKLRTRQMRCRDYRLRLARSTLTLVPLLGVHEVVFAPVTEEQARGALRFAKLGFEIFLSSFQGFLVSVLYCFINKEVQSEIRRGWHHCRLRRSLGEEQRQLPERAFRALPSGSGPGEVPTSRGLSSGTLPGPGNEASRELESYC
The experiment in a line: cell-based or functional assay.

The target of experiment [2] is T1, human GIP receptor. The experiment in a line: cell-based or functional assay. This is another data set of the same source.

Like-named read-outs stand apart in the source and are kept apart here. Where no end group is shown, it is not given here. The star is where a group is joined. C16 diacid = O=C(O)CCCCCCCCCCCCCCC(=O)*

B1: AT469 (peptide)
peptide: EGTFISDYSIAMDKIK(C16 diacid)QQDFVNWLLAQKGPSSGAP-OH
modifications: N-terminus assumed
SMILES: CC[C@H](C)[C@H](NC(=O)[C@H](CO)NC(=O)[C@H](Cc1ccc(O)cc1)NC(=O)[C@H](CC(=O)O)NC(=O)[C@H](CO)NC(=O)[C@@H](NC(=O)[C@H](Cc1ccccc1)NC(=O)[C@@H](NC(=O)CNC(=O)[C@@H](N)CCC(=O)O)[C@@H](C)O)[C@@H](C)CC)C(=O)N[C@@H](C)C(=O)N[C@@H](CCSC)C(=O)N[C@@H](CC(=O)O)C(=O)N[C@@H](CCCCN)C(=O)N[C@H](C(=O)N[C@@H](CCCCNC(=O)CCCCCCCCCCCCCCC(=O)O)C(=O)N[C@@H](CCC(N)=O)C(=O)N[C@@H](CCC(N)=O)C(=O)N[C@@H](CC(=O)O)C(=O)N[C@@H](Cc1ccccc1)C(=O)N[C@H](C(=O)N[C@@H](CC(N)=O)C(=O)N[C@@H](Cc1c[nH]c2ccccc12)C(=O)N[C@@H](CC(C)C)C(=O)N[C@@H](CC(C)C)C(=O)N[C@@H](C)C(=O)N[C@@H](CCC(N)=O)C(=O)N[C@@H](CCCCN)C(=O)NCC(=O)N1CCC[C@H]1C(=O)N[C@@H](CO)C(=O)N[C@@H](CO)C(=O)NCC(=O)N[C@@H](C)C(=O)N1CCC[C@H]1C(=O)O)C(C)C)[C@@H](C)CC
For B1, in experiment [1], the “cAMP antagonism” value came to 3 nM, the “cAMP antagonism % inhib” value stood at 90% and the cAMP antagonism log is -8.5 log M. In experiment [2], the “cAMP agonism % Emax” value was determined as 0%, the “cAMP antagonism” value is 3.8 nM, the “cAMP antagonism % inhib” value came to 93% and the “cAMP antagonism pIC50” value is 8.4.

B2: AT468 (peptide)
peptide: EGTFISDYSIAMDKIK(C16 diacid)QQDFVNWLLAQKGPSSGAPP-OH
modifications: N-terminus assumed
SMILES: CC[C@H](C)[C@H](NC(=O)[C@H](CO)NC(=O)[C@H](Cc1ccc(O)cc1)NC(=O)[C@H](CC(=O)O)NC(=O)[C@H](CO)NC(=O)[C@@H](NC(=O)[C@H](Cc1ccccc1)NC(=O)[C@@H](NC(=O)CNC(=O)[C@@H](N)CCC(=O)O)[C@@H](C)O)[C@@H](C)CC)C(=O)N[C@@H](C)C(=O)N[C@@H](CCSC)C(=O)N[C@@H](CC(=O)O)C(=O)N[C@@H](CCCCN)C(=O)N[C@H](C(=O)N[C@@H](CCCCNC(=O)CCCCCCCCCCCCCCC(=O)O)C(=O)N[C@@H](CCC(N)=O)C(=O)N[C@@H](CCC(N)=O)C(=O)N[C@@H](CC(=O)O)C(=O)N[C@@H](Cc1ccccc1)C(=O)N[C@H](C(=O)N[C@@H](CC(N)=O)C(=O)N[C@@H](Cc1c[nH]c2ccccc12)C(=O)N[C@@H](CC(C)C)C(=O)N[C@@H](CC(C)C)C(=O)N[C@@H](C)C(=O)N[C@@H](CCC(N)=O)C(=O)N[C@@H](CCCCN)C(=O)NCC(=O)N1CCC[C@H]1C(=O)N[C@@H](CO)C(=O)N[C@@H](CO)C(=O)NCC(=O)N[C@@H](C)C(=O)N1CCC[C@H]1C(=O)N1CCC[C@H]1C(=O)O)C(C)C)[C@@H](C)CC
Regarding B2, in experiment [1], the “cAMP agonism Emax” value stood at 4.6, the “cAMP antagonism” value came out at 13 nM, the “cAMP antagonism % inhib” value turned out to be 95% and the cAMP antagonism log is -7.9 log M. In experiment [2], the “cAMP agonism % Emax” value came to 0%, the “cAMP antagonism” value was determined as 12.6 nM, the “cAMP antagonism % inhib” value came out at 92% and the “cAMP antagonism pIC50” value came to 7.9.
